Changes are numbered by the printed parent chain. Numbers in names are those of the source.

To fix the notation:
T1: denatured glycoprotein RNase B, P61823
T1 chain: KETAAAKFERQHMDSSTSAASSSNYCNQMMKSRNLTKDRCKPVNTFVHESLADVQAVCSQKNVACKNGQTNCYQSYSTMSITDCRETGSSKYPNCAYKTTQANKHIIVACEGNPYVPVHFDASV

B1: PNGase F, Peptide-N4-(acetyl-β-D-glucosaminyl)-asparagine amidase, wild type (D60) (protein)
chain: APADNTVNIKTFDKVKNAFGDGLSQSAEGTFTFPADVTTVKTIKMFIKNECPNKTCDEWDRYANVYVKNKTTGEWYEIGRFITPYWVGTEKLPRGLEIDVTDFKSLLSGNTELKIYTETWLAKGREYSVDFDIVYGTPDYKYSAVVPVIQYNKSSIDGVPYGKAHTLGLKKNIQLPTNTEKAYLRTTISGWGHAKPYDAGSRGCAEWCFRTHTIAINNANTFQHQLGALGCSANPINNQSPGNWAPDRAGWCPGMAVPTRIDVLNNSLTGSTFSYEYKFQSWTNNGTNGDAFYAISSFVIAKSNTPISAPVVTN
B2: PNGase F D60A mutant (enzyme)
chain: B1 chain with D60A
B3: PNGase F D60A/R125A mutant (enzyme)
chain: B1 chain with D60A, R125A
B4: PNGase F D60A/E206K mutant (enzyme)
chain: B1 chain with D60A, E206K
B5: PNGase F D60A/E206Q mutant (enzyme)
chain: B1 chain with D60A, E206Q
B6: PNGase F D60A/E206R mutant (enzyme)
chain: B1 chain with D60A, E206R
B7: PNGase F D60N mutant (enzyme)
chain: B1 chain with D60N
B8: PNGase F D60A/D57A mutant (enzyme)
chain: B1 chain with D57A, D60A
B9: PNGase F D60A/E206A mutant (enzyme)
chain: B1 chain with D60A, E206A
B10: denatured glycoprotein RNase B (enzyme)
chain: T1 chain
modifications: a single N-glycosylation site predominantly occupied by high mannose oligosaccharides; protein denatured
notes: Recognition by the PNGase F mutants and by Con A goes through the N-linked glycan on the protein; also called denatured RNase B; dRNAse B
B11: PNGase F E206A mutant (enzyme)
chain: B1 chain with E206A

In data set [1] the target is denatured glycoprotein RNase B (UniProt P61823). Put plainly: reference value of Table 7.
Data set [2] has as its target T1, denatured glycoprotein RNase B, P61823. Put plainly: enzyme Km of the wild type, used as reference for the SPR Kd values.
The target of data set [3] is B10. Put plainly: SPR Kd against wild type Km.
Data set [4] concerns the target B8. Put plainly: SPR, denatured RNase B.
The target in the data set “PNGase F D60A mutant” is B2. Put plainly: SPR, denatured RNase B.
The target of the data set “PNGase F D60N mutant” is B7. Put plainly: SPR, denatured RNase B.
The data set “PNGase F E206A mutant” deals with B11. Description: SPR, denatured RNase B.
Data set [5] has as its target B9. Description: SPR, denatured RNase B.
The target in data set [6] is B4. Put plainly: SPR, denatured RNase B.
The target in data set [7] is B3. Put plainly: SPR, denatured RNase B.
Data set [8] deals with B6. Description: SPR, denatured RNase B.
Data set [9] deals with B5. Put plainly: SPR, denatured RNase B.

With “PNGase F, Peptide-N4-(acetyl-β-D-glucosaminyl)-asparagine amidase, wild type (D60) (from UniProt P21163 41-354) (enzyme)”, in data set [1], the Relative Enhancement (relative to wild type) is 1 fold. As to B1, the Km (printed in the Kd column, footnote a) in [2] is 6400 µM. As to B2, the “Relative Enhancement (relative to wild type)” value (“Relative Enhancement” for short) in [3] was 580 fold. Same read-out and setting: under B3 stands 360 fold. Still for that read-out and setting: the same measure for B4: 360 fold; for B5: 360 fold. The same measure, in the same setting: the same measure for B6: 240 fold; for B7: 290 fold; for B8: 910 fold. On to B9, for which, in data set [3], the “Relative Enhancement” value is 320 fold.

B10: the Kd in data set [4] was found to be 7 µM; with PNGase F D60A mutant, 11 µM; in the data set with PNGase F D60N mutant it was 21 µM; with PNGase F E206A mutant, 11 µM; in data set [5] it was 20 µM; in data set [6] it was 18 µM. Besides, the Kd in data set [7] was found to be 18 µM; in data set [8], 27 µM; in [9], 18 µM.

B11: the “Relative Enhancement” value in data set [3] worked out at 580 fold.

The record behind these values is patent publication US20120040474A1 (published 2012).
